Source: patent publication US8008452B2, “Phosphorylated Ndr kinase” (Novartis Forschungesstiftung, Zweigniederlassung Friedrich …, priority 2002, dated 2011)

Key:
GST-NDR1 [1] = test: GST-NDR1 kinase assay (peptide kinase assay); format: biochemical, human; set-up: Specific activity of GST-NDR1 variants, CTRL / Specific activity of GST-NDR1 variants, −S100B / Specific activity of GST-NDR1 variants, +S100B: unit not given here; conditions: for Specific activity of GST-NDR1 variants, −S100B: autophosphorylated 2 h in the absence of CaCl2 and S100B; for Specific activity of GST-NDR1 variants, +S100B: autophosphorylated 2 h in the presence of 1 mM CaCl2 and 10 mM bovine S100B; for Specific activity of GST-NDR1 variants, CTRL: left without further treatment
Description: 1 microgram of purified recombinant GST-NDR1 wild type and mutants (without further treatment or autophosphorylated for 2 h in the presence or absence of 1 mM CaCl2 and […] (Sigma)) were assayed in 20 microliter of reaction mixture containing 20 mM Tris-HCl pH 7.5, 10 mM MgCl2, 1 mM DTT, 100 microM [gamma-^32P]ATP (˜0.5 microCi/microliter), and 1 mM NDR1 substrate peptide ([…]; SEQ ID NO:22). After 30 mins incubation at 30° C., reactions were stopped with 50 mM EDTA, and 10 microliters of reaction mixture were spotted onto 2 cm^2 squares of P81 phosphocellulose paper (Whatman). These were subsequently washed for 4×5 min and 3×20 min in 1% phosphoric acid and once in acetone before counting in a liquid scintillation counter. One unit of NDR1 activity was defined as the amount which catalyses the phosphorylation of 1 nmol peptide substrate in 1 min.
Specific activity of GST-NDR1 mutants was also measured by a peptide kinase assay as described above. For this purpose, 1 microgram of purified GST-NDR1 wild type and alanine mutants were left without further treatment or autophosphorylated for 2 h in the presence or absence of 1 mM CaCl2 and […].

GST-NDR1 [2] = test: GST-NDR1 in vitro autophosphorylation, incorporated 32P by Cerenkov counting; format: biochemical, human; conditions: for amount of incorporated 32P (autophosphorylation), −S100B / amount of incorporated 32P (autophosphorylation), +S100B: GST-NDR1 variant; for amount of incorporated 32P (autophosphorylation), −S100B: 1 microgram, autophosphorylated 2 hours without further additions, pmol ATP/pmol GST-NDR1; for amount of incorporated 32P (autophosphorylation), +S100B: 2 hours in the presence of 1 mM CaCl2 and 10 microM bovine S100B, in pmol ATP/pmol GST-NDR1; for autophosphorylation rate of GST-NDR1 mutant (in words): compared with wild type
Description: BL21-DE3-pRep4 E. coli strain was transformed with the pGEX-2T_NDR1 wild type or mutant plasmids. BL21-DE3 is a protease-deficient E. coli strain and pRep4 is a Laclq repressor-bearing plasmid both available commercially. Optionally, if desired, an E. coli strain comprising GroESL can be used, which expresses a chaperone protein that stabilizes the kinase. Mid-logarithmic phase cells were induced with 0.5 mM isopropyl beta-D-thiogalactopyranoside (IPTG) for 4 hours at 30° C. Bacteria were lysed using a French press in the presence of 1 mg/ml lysosyme, and the fusion proteins were purified on glutathione-agarose (Amersham Pharmacia Biotech) as described by the manufacturers. Recombinant proteins were assayed for kinase activity as described below and autophosphorylation was determined after SDS-PAGE separation either by Cerenkov counting or by exposure to a PhosphorImager screen followed by analysis with ImageQuant software (Molecular Dynamics).
In brief, 1 microgram of purified GST-NDR1 (in solution ˜0.5 microM) wild type, kinase dead (K118A), and alanine mutants of phosphorylation residues Thr74, Ser281, and Thr444 were autophosphorylated for 2 hours in vitro without further additions or in the presence of 1 mM CaCl2 and 10 microM bovine S100B. Proteins were visualized on SDS gels using Coomassie Blue R-350 stained SDS-PAGE gel, and [gamma-^32P]ATP-labelled proteins were visualized by autoradiography of the gels developed on a Phosphorimager screen. The amount of incorporated ^32P was quantified by Cerenkov counting.

HA-NDR1 = HA-NDR1 kinase assay on 12CA5 immunoprecipitates from transfected, treated COS-1 cells; format: cell-based, human; set-up: kinase activity of HA-NDR1 variants, −OA: unit not given here; conditions: COS-1 cells; for kinase activity of HA-NDR1 variants, +OA: 1 microM okadaic acid 1 h; for kinase activity of HA-NDR1 variants, −OA: solvent alone 1 h
Description: In some experiments, the cells were treated for 60 min with 1 microM okadaic acid in 0.1% N,N-dimethylformamide (DMF) (Alexis Corp.), 50 microM BAPTA-AM (1,2-bis (o-aminophenoxy) ethane-N,N,N′,N′-tetraacetic acid tetra (acetoxy-methyl)ester) in 0.1% diimethylsulfoxide (DMSO; Sigma), or 20 microM thapsigargin in 0.1% DMSO (Alomone) 24 hours after transfection.
Transfected and treated COS-1 cells were washed once with ice-cold PBS, and harvested by rubber policeman in 1 ml ice-cold PBS containing 1 mM Na3VO4 and 20 mM beta-glycerophosphate before lysis in 500 microliters of IP buffer (20 mM Tris-HCl pH 8.0, 150 mM NaCl, 1% Nonidet P-40, 10% glycerol, 1 mM Na3VO4, 20 mM beta-glycerolphosphate, 1 microM microcystin-LR, 50 mM NaF, 0.5 mM PMSF, 4 microM leupeptin, 1 mM benzamidine, and 1 tablet/10 ml IP of Complete protease inhibitors (Roche)). Lysates were centrifuged at 20 000 g for 20 min and triplicate aliquots (200 microg) of supernatant were precleared with protein A-Sepharose (Amersham Pharmacia Biotech) for 60 min and mixed subsequently for 3 h at 4° C. with 12CA5 antibody prebound to protein A-Sepharose (˜1 microg antibody bound to 2 microl beads). The beads were then washed twice with IP buffer, once for 10 min with IP buffer containing 1 M NaCl, once again for 10 min with IP buffer, and finally twice with 20 mM Tris-HCl pH 7.5 containing 4 microM leupeptin and 1 mM benzamidine. Thereafter, beads were resuspended in 30 microliters buffer containing 20 mM Tris-HCl pH 7.5, 10 mM MgCl2, 1 mM DTT, 100 microM [gamma-^32P]ATP (˜0.1 microCi/microliter), 1 microM cAMP-dependent protein kinase inhibitor peptide PKI (Bachem), 4 microM leupeptin, 1 mM benzamidine, 1 microM microcystin-LR, and 1 mM NDR1 substrate peptide ([…]). After 60 min incubation at 30° C., 15 microliters of supernatant were removed, and phosphate incorporation into the substrate peptide determined as described for GST-NDR1 above.
COS-1 cells expressing either wild type HA-NDR1 or the indicated mutants were treated for 1 h with 1 microM okadaic acid or with solvent alone. HA-tagged NDR kinase variants were then immunoprecipitated (out of 100 microgram of detergent extracts) with 12CA5 monoclonal antibody and assayed for kinase activity by a peptide kinase assay as described above.
Mock-transfected or HA-NDR1-expressing COS-1 cells were treated for 1 h with […], 50 microM BAPTA-AM, and […] or with solvent (0.1% DMF or 0.1% DMSO) alone. 12CA5 immunoprecipitates (out of 100 microgram protein extract) were then assayed using the peptide kinase assay for NDR1 kinase activity.
To test whether hMOB1 plays a role in NDR activation, myc-hMOB1 or the empty vector was cotransfected with HA-NDR1 in COS1 cells and treated with OA. 12CA5 immunoprecipitates were then assayed using the peptide kinase assay for HA-NDR kinase activity. […] GST-MOB and GST respectively was added to immunoprecipitated HA-NDR and kinase reaction were performed. The reactions were resolved on a 10% SDS PAGE and the radioactivity visualised by using a phosphoimager.

Substance	Specific activity of GST-NDR1 variants, −S100B (GST-NDR1 [1])	Specific activity of GST-NDR1 variants, +S100B (GST-NDR1 [1])	Specific activity of GST-NDR1 variants, CTRL (GST-NDR1 [1])	amount of incorporated 32P (autophosphorylation), −S100B (GST-NDR1 [2])	amount of incorporated 32P (autophosphorylation), +S100B (GST-NDR1 [2])	autophosphorylation rate of GST-NDR1 mutant (in words) (GST-NDR1 [2])	kinase activity of HA-NDR1 variants, +OA (HA-NDR1)	kinase activity of HA-NDR1 variants, −OA (HA-NDR1)	kinase activity of GST-NDR1 mutant (in words) (GST-NDR1 [1]; compared with wild type)
K118A: NDR1 kinase dead mutant, Lys 118 to alanine; GST fusion or HA-tagged	0.272	0.222	0.158	0.0076	0.0064	did not show detectable autophosphorylation	0.0204	0.0107	
T74A: NDR1 alanine mutant of phosphorylation residue Thr74; GST fusion or HA-tagged	3.786	7.818	1.006	0.158	0.2072	negligible reduction	1.053	0.124	negligible reduction
T444A: NDR1 alanine mutant of phosphorylation residue Thr444; GST fusion or HA-tagged	1.92	3.974	0.564	0.1232	0.2412	significant decrease	0.6019	0.1067	
